Earlier results on one substance are cited in PMC9256694.

The data set has as its target IL-2 receptor beta/gamma common chain (Homo sapiens) (UniProt P14784).
UniProt P14784, sequence (P14784 27-240, chain 1 of 2): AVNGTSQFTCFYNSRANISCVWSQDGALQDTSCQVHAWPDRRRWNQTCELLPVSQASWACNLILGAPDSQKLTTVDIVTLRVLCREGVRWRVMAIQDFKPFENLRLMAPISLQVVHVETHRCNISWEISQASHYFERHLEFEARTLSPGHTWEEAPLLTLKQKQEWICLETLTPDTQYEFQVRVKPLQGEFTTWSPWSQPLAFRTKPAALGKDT
UniProt P14784, sequence (P31785 23-262, chain 2 of 2, further chain): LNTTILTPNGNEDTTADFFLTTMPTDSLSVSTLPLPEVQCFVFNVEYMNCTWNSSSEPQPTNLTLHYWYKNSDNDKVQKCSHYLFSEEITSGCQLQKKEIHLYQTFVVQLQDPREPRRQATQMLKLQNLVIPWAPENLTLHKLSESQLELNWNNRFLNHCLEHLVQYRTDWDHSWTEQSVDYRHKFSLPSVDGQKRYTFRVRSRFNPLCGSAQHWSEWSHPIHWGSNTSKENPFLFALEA

IL-2, sequence (P60568 21-153): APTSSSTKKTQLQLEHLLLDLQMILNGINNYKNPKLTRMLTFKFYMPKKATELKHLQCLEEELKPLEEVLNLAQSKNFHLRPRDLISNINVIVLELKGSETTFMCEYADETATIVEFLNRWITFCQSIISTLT

A word on the Kd: it is a measure of binding affinity in units of concentration. As for IL-2 (from UniProt P60568), the dissociation constant (Kd) was 1 nM.
